26 sequences from the supplement of paper PMC12764529 can be followed below.

± gives the half width of the 95% confidence interval.

A short description of data set [1]: folding stability dG unfold from trypsin proteolysis; higher = more stable. The essentials:
(§1)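 How resistant each design was to proteolysis was captured as K50, inferred by Bayesian fitting of sequencing counts. Unfolding free energy was then derived relative to a sequence-predicted unfolded-state K50 and a shared folded-state K50, per protease or combined. Digestion used trypsin and chymotrypsin at 11 threefold-diluted concentrations plus a no-protease condition, on mini-proteins under 80 residues without cysteine in a PA-tagged cDNA display construct. Designs were kept only when AlphaFold2 dimer inter-PAE was above 15.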

Data set [2] in a line: folding stability dG unfold (combined trypsin and chymotrypsin); higher = more stable. The essentials: as §1
A short description of data set [3]: folding stability dG unfold from chymotrypsin proteolysis; higher = more stable. The procedure, abridged: as §1

Take “SAGGSAGGSAGGKRYRVTELEVVEVDGEKRLLVRFEDGRTQAFPAGAKISPDGAEIELLPSAGGSAGGSAGG [r7_931_TrROS_Hall]”: the “folding stability dG unfold” value turned out to be 0.469 ± 0.042 kcal/mol in data set [1], 1.14 ± 0.04 kcal/mol in data set [2] and 1.44 ± 0.033 kcal/mol in data set [3].

In the case of “SAGGSAGGSAGGKSKTLRLYNKDTGVAVTVTLNEDGSLSVTVEPLPPPPPVEEKVVVKGSAGGSAGGSAGGS [r10_664_TrROS_Hall]”, the “folding stability dG unfold” value is 0.527 ± 0.071 kcal/mol in data set [1], 1.03 ± 0.11 kcal/mol in data set [2] and 1.37 ± 0.13 kcal/mol in data set [3].

For “SAGGSAGGSAGGKVAIVTASPEKAKEIAKKAGIKDVIIIPKNKPELLGPNVDKVILVAEKSAGGSAGGSAGG [r7_381_TrMRF]”, the “folding stability dG unfold” value in data set [1] is -0.629 ± 0.066 kcal/mol; in data set [2], less than -1 kcal/mol; in data set [3] it was -1.94 ± 0.33 kcal/mol.

As to “SAGGSAGGSAGGKVLKIKFSSIEEILEYIKNNDSVTIVVLDENDNPIGTITVEVKPGSLSAGGSAGGSAGGS [r10_193_TrMRF]”, the “folding stability dG unfold” value in data set [1] worked out at 1.67 ± 0.046 kcal/mol; in data set [2], 2.5 ± 0.092 kcal/mol; in data set [3], 2.89 ± 0.039 kcal/mol.

With “SAGGSAGGSAGGKVTIEFPTSRVELYPLPGPFVLAEVSFPNRKLLALAHPDGDEILILPISAGGSAGGSAGG [r7_683_TrMRF]”, the entries for the “folding stability dG unfold” value in data set [1], in data set [2] and in data set [3] were 0.929 ± 0.028 kcal/mol, 1.07 ± 0.042 kcal/mol and 1.05 ± 0.082 kcal/mol, respectively.

Consider “SAGGSAGGSAGGKVYFLPDNTVVYELPDGLYLAVTVNENGEPSRTLYRVLSPTEIKPFPLSAGGSAGGSAGG [r7_423_TrMRF]”, for which the “folding stability dG unfold” value in data set [1] stood at 1.65 ± 0.024 kcal/mol; in data set [2], 1.72 ± 0.035 kcal/mol; in data set [3], 1.66 ± 0.034 kcal/mol.

“SAGGSAGGSAGGKWRPITFPFPDGWYLQIYMNPDGDVKAEIYNPDGKPVEKTFPPGEPIFSAGGSAGGSAGG [r7_215_TrROS]”: the “folding stability dG unfold” value in data set [1] stood at 1.25 ± 0.027 kcal/mol; in data set [2] it was 1.55 ± 0.054 kcal/mol; in data set [3], 1.67 ± 0.02 kcal/mol.

In the case of “SAGGSAGGSAGGLDLSVPGLTSVTPVLLEDPRGYVTTVYTTTYPDGTVLTHTTVLPASLLSAGGSAGGSAGG [r7_214_JUSTAS]”, the “folding stability dG unfold” value amounted to 1.09 ± 0.025 kcal/mol in data set [1], 1.16 ± 0.024 kcal/mol in data set [2] and 1.16 ± 0.031 kcal/mol in data set [3].

For “SAGGSAGGSAGGLEIVKEVIKNPLKNEPVEVLILIEKKEEPIEKTDLFEIPVKITIIPLSAGGSAGGSAGGS [r10_459_JUSTAS]”, the results for the “folding stability dG unfold” value in data set [1], in data set [2] and in data set [3] were 1.29 ± 0.11 kcal/mol, 0.812 ± 0.19 kcal/mol and 0.152 ± 0.16 kcal/mol, respectively.

For the sequence “SAGGSAGGSAGGLKDALENGYVMIDFEIYNPPNGEPIGEITIMVKVPKPEPDEDGNWQLVSAGGSAGGSAGG [r7_959_TrROS]”, the “folding stability dG unfold” value in data set [1] stood at 1.34 ± 0.086 kcal/mol; in data set [2], 1.26 ± 0.16 kcal/mol; in data set [3] it was 0.941 ± 0.06 kcal/mol.

Take “SAGGSAGGSAGGLKPGQKVAVFVKVKVKLYRDPATNELTEEVEIEDVFVVDAETKELLLSAGGSAGGSAGGS [r10_248_TrROS_Hall]”: the “folding stability dG unfold” value in data set [1] was found to be 1.98 ± 0.13 kcal/mol; in data set [2] it was 2.45 ± 0.12 kcal/mol; in data set [3] it was 2.64 ± 0.071 kcal/mol.

As for “SAGGSAGGSAGGLLEIELPSRRILVELKLELKDGKLVKLEIKVKYEGREPEPLTSPEYKSAGGSAGGSAGGS [r10_1043_TrMRF]”, the “folding stability dG unfold” value in data set [1] came to 1.71 ± 0.14 kcal/mol; in data set [2], 1.76 ± 0.44 kcal/mol; in data set [3], 1.94 ± 0.17 kcal/mol.

With “SAGGSAGGSAGGLPEDDNYVRVKITFTIMMMEFDPKNGKMQMFPISIEIEIYIPPGAELSAGGSAGGSAGGS [r10_133_TrROS]”, the “folding stability dG unfold” value in data set [1] turned out to be 2.36 ± 0.12 kcal/mol; in data set [2] it was 3.26 ± 0.22 kcal/mol; in data set [3], 3.6 ± 0.25 kcal/mol.

Regarding “SAGGSAGGSAGGLPNIPGFVLLETYSETFNVPLPENRTATITKTLILHPNALLESYSINPSAGGSAGGSAGG [r7_945_TrMRF]”, the “folding stability dG unfold” value in data set [1] is -0.198 ± 0.27 kcal/mol; in data set [2], -0.251 ± 0.27 kcal/mol; in data set [3] it was -0.353 ± 0.23 kcal/mol.

In the case of “SAGGSAGGSAGGLVPPDAVIPTETTAEEPVYVIDPVTGELTPIGPGVVRRKITRRVPRPSAGGSAGGSAGGS [r10_1115_JUSTAS]”, the “folding stability dG unfold” value is -0.968 ± 0.22 kcal/mol in data set [1], 0.514 ± 0.11 kcal/mol in data set [2] and 0.863 ± 0.056 kcal/mol in data set [3].

As to “SAGGSAGGSAGGMALIKLPNGEVQPVKIKAIDPDGNILVEPENSEWQTFSFDGLEIIPLPSAGGSAGGSAGG [r7_823_TrMRF]”, the “folding stability dG unfold” value in data set [1] was found to be 0.647 ± 0.041 kcal/mol; in data set [2], 0.886 ± 0.16 kcal/mol; in data set [3] it was 0.955 ± 0.16 kcal/mol.

On to “SAGGSAGGSAGGMEFKPGQEIEIVLKDENGRLIVIKAKVKKVDGKLVIEIEEAYELDDLSAGGSAGGSAGGS [r10_744_TrROS_Hall]”, for which the “folding stability dG unfold” value was 2.34 ± 0.12 kcal/mol in data set [1], 2.05 ± 0.26 kcal/mol in data set [2] and 2 ± 0.14 kcal/mol in data set [3].

Turning to “SAGGSAGGSAGGMEISEKLREYIEKLGKKVSEEEALAIAEEKAKELKEKGIEDVTIVLPVSAGGSAGGSAGG [r7_512_JUSTAS]”, the “folding stability dG unfold” value in data set [1] was -0.0343 ± 0.1 kcal/mol; in data set [2] it was 0.399 ± 0.17 kcal/mol; in data set [3], 0.374 ± 0.072 kcal/mol.

Consider “SAGGSAGGSAGGMIEKIEVTKLPDGTYKVTITIPLPNGPVITKTITIPPSETVEDAIAKLSAGGSAGGSAGG [r7_54_JUSTAS]”, for which the “folding stability dG unfold” value in data set [1] worked out at 2.54 ± 0.04 kcal/mol; in data set [2] it was 2.31 ± 0.046 kcal/mol; in data set [3], 2.194 ± 0.012 kcal/mol.

On to “SAGGSAGGSAGGMIKIKLGDKWVDVAEVKEYPDSIIVYNPKTNTKITISKKNPEDPNILISAGGSAGGSAGG [r7_391_JUSTAS]”, for which the entries for the “folding stability dG unfold” value in data set [1], in data set [2] and in data set [3] were 0.463 ± 0.09 kcal/mol, 1.01 ± 0.21 kcal/mol and 1.47 ± 0.081 kcal/mol, respectively.

With “SAGGSAGGSAGGMINIEGSSFEIVQPDGKPIGSESTGSAEELAKKLPSSYSVLPKGVPPSAGGSAGGSAGGS [r10_310_JUSTAS]”, the results for the “folding stability dG unfold” value in data set [1], in data set [2] and in data set [3] were 1.67 ± 0.21 kcal/mol, 2.25 ± 0.27 kcal/mol and 2.72 ± 0.11 kcal/mol, respectively.

For the sequence “SAGGSAGGSAGGMIVETLGDSPETVTLVKLPNKPIIRTYDPVTGTWTIYDPDTNKIYEISAGGSAGGSAGGS [r10_434_JUSTAS]”, the entries for the “folding stability dG unfold” value in data set [1], in data set [2] and in data set [3] were 1.39 ± 0.052 kcal/mol, 1.26 ± 0.098 kcal/mol and 0.872 ± 0.14 kcal/mol, respectively.

“SAGGSAGGSAGGMKIKNAEIVEVKEENGKKTLLVKNKETGKYYKITIDDNKITIEEVKVPSAGGSAGGSAGG [r7_940_TrROS_Hall]”: the “folding stability dG unfold” value in data set [1] amounted to 2.21 ± 0.32 kcal/mol; in data set [2], 3.87 ± 0.52 kcal/mol; in data set [3], 4.13 ± 0.13 kcal/mol.

With “SAGGSAGGSAGGMKIKTITGDPSTGVYTITFPDGKVETIPMTQEEVEALAKENPGIEITLSAGGSAGGSAGG [r7_175_JUSTAS]”, the “folding stability dG unfold” value came to 0.899 ± 0.035 kcal/mol in data set [1], 2.46 ± 0.097 kcal/mol in data set [2] and 2.81 ± 0.049 kcal/mol in data set [3].

For “SAGGSAGGSAGGMKITKVEVFERPDGYLVVKMEIELTNENGEKVKLELVFVFKPGEVIESAGGSAGGSAGGS [r10_1183_TrROS_Hall]”, the figures for the “folding stability dG unfold” value in data set [1], in data set [2] and in data set [3] were 3 ± 0.15 kcal/mol, 4.72 ± 0.31 kcal/mol and 4.96 ± 0.2 kcal/mol, respectively.

Regarding “SAGGSAGGSAGGMKLVTLPDGKTYPFTSLEEFKEALLKETGKPVDLKNPVIYPVPPGLSSAGGSAGGSAGGS [r10_62_JUSTAS]”, the “folding stability dG unfold” value turned out to be 0.401 ± 0.14 kcal/mol in data set [1], 0.99 ± 0.22 kcal/mol in data set [2] and 0.959 ± 0.084 kcal/mol in data set [3].
